Patent publication US20240317851A1 (LANOVA MEDICINES, published 2024)

Experiments:
[1] = biological target: T1, human Claudin 3 (human, UniProt O15551 1-220); assay: flow cytometry, CHOK1/H_CLDN3 cells
T1 construct: whole, on cells; also called CLDN3
T1 sequence (looked up): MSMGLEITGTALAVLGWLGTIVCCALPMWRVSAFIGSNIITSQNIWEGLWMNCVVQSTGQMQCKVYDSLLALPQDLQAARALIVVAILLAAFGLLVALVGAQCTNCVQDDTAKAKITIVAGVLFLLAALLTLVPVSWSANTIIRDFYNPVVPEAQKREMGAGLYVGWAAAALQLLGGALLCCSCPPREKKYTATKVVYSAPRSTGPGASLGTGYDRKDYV
Experimental: (§1) In this example, cell-based binding of hu Abs on human CLDN3 expressing cells were assessed using flow cytometry.
(§2) Briefly, the CHOK1/H_CLDN3 cells were incubated with hu-Abs (from 100 nM, 6 folds dilution, 8 points). After incubation at 4° C. for 60 minutes. Cells were pelleted and washed twice with 2% FBS/PBS buffer, and stained with fluorescent conjugated secondary antibody at 4° C. for 30 minutes. After that the cells were washed twice and resuspended in 80 μL of 2% FBS/PBS buffer. Fluorescent signal of binding was detected using Agilent. The EC50 was calculated using the GraphPad software.

[2] = biological target: T2, human Claudin 9 (human, UniProt O95484 1-217); assay: flow cytometry, HEK293/H_CLDN9 cells
T2 construct: whole, on cells; also called CLDN9; CLND9
T2 sequence (looked up): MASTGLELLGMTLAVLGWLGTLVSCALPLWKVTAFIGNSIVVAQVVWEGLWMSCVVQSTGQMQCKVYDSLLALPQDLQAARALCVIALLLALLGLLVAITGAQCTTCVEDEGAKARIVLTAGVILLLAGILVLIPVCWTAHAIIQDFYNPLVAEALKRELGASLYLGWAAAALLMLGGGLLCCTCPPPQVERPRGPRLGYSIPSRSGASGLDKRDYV
Experimental: In this example, cell-based binding of z5 toward human CLDN9 engineering expressing cells were assessed using flow cytometry.
as §2, with “2 cell lines” for “the CHOK1/H_CLDN3 cells”, “antibodies” for “hu-Abs”, “points)” for “points). After incubation”

[3] = biological target: T1, human Claudin 3; assay: flow cytometry, CHOK1/H_CLDN3 cells, Ab titrated from 100 nM
Experimental: as §1, §2

[4] = biological target: T3, human Claudin 6 (human, UniProt P56747 1-220); assay: flow cytometry, HEK293/H_CLDN6 cells, Ab titrated from 100 nM
T3 construct: whole, on cells; also called CLDN6
T3 sequence (looked up): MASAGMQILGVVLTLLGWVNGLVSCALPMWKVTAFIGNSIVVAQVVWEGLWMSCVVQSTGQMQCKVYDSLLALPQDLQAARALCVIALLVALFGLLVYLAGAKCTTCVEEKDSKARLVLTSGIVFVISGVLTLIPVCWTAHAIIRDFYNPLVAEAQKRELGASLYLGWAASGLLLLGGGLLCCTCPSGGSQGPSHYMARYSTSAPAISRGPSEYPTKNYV
Experimental: In this example, cell-based binding of humanized antibodies (hu Abs) on human CLDN6 expressing cells were assessed using flow cytometry.
as §2, with “HEK293/H_CLDN6” for “CHOK1/H_CLDN3”

[5] = biological target: T2, human Claudin 9; assay: flow cytometry, HEK293/H_CLDN9 cells, Ab titrated from 100 nM
Experimental: In this example, cell-based binding of hu Abs on human CLDN9 expressing cells were assessed using flow cytometry.
as §2, with “HEK293/H_CLDN9” for “CHOK1/H_CLDN3”, “software (LaJolla, CA).” for “software.”

[6] = biological target: T3, human Claudin 6; assay: cell-based or functional assay

Row | Binder | Top MFI [3] | Top MFI [4] | Top MFI [5] | binding result [1] | binding result [2] | Min cell viability, OV90 (CLDN6 low) [6] [%] | Min cell viability, OVCAR-3 (CLDN6 mid) [6] [%] | Min cell viability, PA-1 (CLDN6 high) [6] [%]
1 | 97-C10E1-2-P1.z3 (antibody, V domains shown) VH: QVQLVQSGAEVKKPGASVKVSCKASGYAFTGYTMNWVRQAPGQGLEWIGLSNPYNAGTIYNQKFKGRVTMTVDKSTSTVYMELSSLRSEDTAVYYCARNYYYGSSYAYYYAMDYWGQGTTVTVSS VL: DAQMTQSPSSLSASVGDRVTITCRSSTGAVTTSNYANWVQQKPGKAPKLLIGGTNNRAPGVPSRFSGSGSGTDATLTISSLQPEDFATYYCALWYSNHWVFGGGTKVEIK | 133 | 27400 | 594 | no binding (tested: 100 nM (highest concentration tested)) | no binding (tested: 100 nM (highest concentration tested)) | – | – | –
2 | z5-LM-D03 (antibody, V domains shown, LM-D03 conjugated to the antibody (structure only as a drawing); residues and drug load not stated) VH: QVQLVQSGAEVKKPGASVKVSCKASGYAFTGYTMNWVRQAPGQGLEWIGLSNPYNAGTIYNQKFKGRVTMTVDKSTSTVYMELSSLRSEDTAVYYCARNYYYGSSYAYYYAMDYWGQGTTVTVSS VL: DIVVTQSPSSLSTSVGDRVTITCRSSTGAVTTSNYANWVQEKPGKAFKGLIGGTNNRAPGVPARFSGSLSGDDAALTISSAQPEDFATYFCALWYSNHWVFGGGTKVEIK | – | – | – | – | – | 30.4 | 20.3 | 12.1
3 | z5-LM-D01 (antibody, V domains shown, LM-D01 conjugated to the antibody (structure only as a drawing); residues and drug load not stated) VH: QVQLVQSGAEVKKPGASVKVSCKASGYAFTGYTMNWVRQAPGQGLEWIGLSNPYNAGTIYNQKFKGRVTMTVDKSTSTVYMELSSLRSEDTAVYYCARNYYYGSSYAYYYAMDYWGQGTTVTVSS VL: DIVVTQSPSSLSTSVGDRVTITCRSSTGAVTTSNYANWVQEKPGKAFKGLIGGTNNRAPGVPARFSGSLSGDDAALTISSAQPEDFATYFCALWYSNHWVFGGGTKVEIK | – | – | – | – | – | 87.9 | 0.2 | 7.75
4 | z5-DXD (antibody, V domains shown, DXD conjugated to the antibody; residues and drug load not stated) VH: QVQLVQSGAEVKKPGASVKVSCKASGYAFTGYTMNWVRQAPGQGLEWIGLSNPYNAGTIYNQKFKGRVTMTVDKSTSTVYMELSSLRSEDTAVYYCARNYYYGSSYAYYYAMDYWGQGTTVTVSS VL: DIVVTQSPSSLSTSVGDRVTITCRSSTGAVTTSNYANWVQEKPGKAFKGLIGGTNNRAPGVPARFSGSLSGDDAALTISSAQPEDFATYFCALWYSNHWVFGGGTKVEIK | – | – | – | – | – | 90.5 | 24.5 | 14.1
5 | 97-C10E1-2-P1.z6 (antibody, V domains shown) VH: QVQLQQSGAEVKKPGASVKVSCKASGYAFTGYTMNWVRQAPGQNLEWIGLSNPYNAGTIYNQKFKGRVTLTVDKSTSTVYMELLSLRSEDTAVYYCARNYYYGSSYAYYYAMDYWGQGTTVTVSS VL: EAVMTQSPATLSVSPGERATLSCRSSTGAVTTSNYANWVQQKPGQAPRLLIGGTNNRAPGIPARFSGSGSGDEATLTISSLQSEDFAVYFCALWYSNHWVFGGGTKVEIK | 139 | 32200 | 417 | no binding (tested: 100 nM (highest concentration tested)) | no binding (tested: 100 nM (highest concentration tested)) | – | – | –

Now from value to binder, other results behind:

Row | Top MFI [3] | Top MFI [4] | Top MFI [5] | Binder | binding result [1] | binding result [2] | Min cell viability, OV90 (CLDN6 low) [6] [%] | Min cell viability, OVCAR-3 (CLDN6 mid) [6] [%] | Min cell viability, PA-1 (CLDN6 high) [6] [%]
6 | 138 | 128000 | 186 | 97-C10E1-2-P1.z15 (antibody, V domains shown) VH: QVQLQQSGAEVKKPGASMKISCKASGYAFTGYTMNWVRQAPGQNLEWIGLSNPYNAGTIYNQKFKGRATLTVDKSTSTAYMELLSLRSEDTAVYYCARNYYYGSSYAYYYAMDYWGQGTTVTVSS VL: DIVVTQSPSSLSTSVGDRVTITCRSSTGAVTTSNYANWVQEKPGKAFKGLIGGTNNRAPGVPARFSGSLSGDDAALTISSAQPEDFATYFCALWYSNHWVFGGGTKVEIK | no binding (tested: 100 nM (highest concentration tested)) | no binding (tested: 100 nM (highest concentration tested)) | – | – | –
7 | 254 | – | 1560 | 97-C10E1-2-P1.z5 (antibody, V domains shown, also called candidate antibody) VH: QVQLVQSGAEVKKPGASVKVSCKASGYAFTGYTMNWVRQAPGQGLEWIGLSNPYNAGTIYNQKFKGRVTMTVDKSTSTVYMELSSLRSEDTAVYYCARNYYYGSSYAYYYAMDYWGQGTTVTVSS VL: DIVVTQSPSSLSTSVGDRVTITCRSSTGAVTTSNYANWVQEKPGKAFKGLIGGTNNRAPGVPARFSGSLSGDDAALTISSAQPEDFATYFCALWYSNHWVFGGGTKVEIK | no binding (tested: 100 nM (highest concentration tested)) | – | – | – | –
8 | 247 | 207000 | 2520 | 97-C10E1-2-P1.z2 (antibody, V domains shown) VH: QVQLVQSGAEVKKPGASVKVSCKASGYAFTGYTMNWVRQAPGQGLEWIGLSNPYNAGTIYNQKFKGRVTMTVDKSTSTVYMELSSLRSEDTAVYYCARNYYYGSSYAYYYAMDYWGQGTTVTVSS VL: EAVVTQSPATLSVSPGERATLSCRSSTGAVTTSNYANWVQEKPGQAFRGLIGGTNNRAPGIPARFSGSLSGDEATLTISSLQSEDFAVYFCALWYSNHWVFGGGTKVEIK | no binding (tested: 100 nM (highest concentration tested)) | – | – | – | –
9 | 160 | 121000 | 258 | 97-C10E1-2-P1.z10 (antibody, V domains shown) VH: QVQLQQSGAEVKKPGASVKVSCKASGYAFTGYTMNWVRQAPGQNLEWIGLSNPYNAGTIYNQKFKGRVTLTVDKSTSTVYMELLSLRSEDTAVYYCARNYYYGSSYAYYYAMDYWGQGTTVTVSS VL: DIVVTQSPSSLSTSVGDRVTITCRSSTGAVTTSNYANWVQEKPGKAFKGLIGGTNNRAPGVPARFSGSLSGDDAALTISSAQPEDFATYFCALWYSNHWVFGGGTKVEIK | no binding (tested: 100 nM (highest concentration tested)) | no binding (tested: 100 nM (highest concentration tested)) | – | – | –
10 | 131 | 15500 | 315 | 97-C10E1-2-P1.z13 (antibody, V domains shown) VH: QVQLQQSGAEVKKPGASMKISCKASGYAFTGYTMNWVRQAPGQNLEWIGLSNPYNAGTIYNQKFKGRATLTVDKSTSTAYMELLSLRSEDTAVYYCARNYYYGSSYAYYYAMDYWGQGTTVTVSS VL: DAQMTQSPSSLSASVGDRVTITCRSSTGAVTTSNYANWVQQKPGKAPKLLIGGTNNRAPGVPSRFSGSGSGTDATLTISSLQPEDFATYYCALWYSNHWVFGGGTKVEIK | no binding (tested: 100 nM (highest concentration tested)) | no binding (tested: 100 nM (highest concentration tested)) | – | – | –
11 | 137 | 16300 | 542 | 97-C10E1-2-P1.z8 (antibody, V domains shown) VH: QVQLQQSGAEVKKPGASVKVSCKASGYAFTGYTMNWVRQAPGQNLEWIGLSNPYNAGTIYNQKFKGRVTLTVDKSTSTVYMELLSLRSEDTAVYYCARNYYYGSSYAYYYAMDYWGQGTTVTVSS VL: DAQMTQSPSSLSASVGDRVTITCRSSTGAVTTSNYANWVQQKPGKAPKLLIGGTNNRAPGVPSRFSGSGSGTDATLTISSLQPEDFATYYCALWYSNHWVFGGGTKVEIK | no binding (tested: 100 nM (highest concentration tested)) | no binding (tested: 100 nM (highest concentration tested)) | – | – | –
